Measured values reported in article PMC9352680, “A comprehensive thermodynamic model for RNA binding by the Saccharomyces cerevisiae Pumilio protein PUF4”.
Residue numbers refer to the chain shown, from its start. Names may count otherwise.

B1: Ic_S4_P4E.1_K4.1_C4.1_H4.1_A4.1_[T5C]_[T7C]_F4.1_[T8G]_[A9C]_T4.1 (ssRNA)
RNA: UUUGACAACUGAUCGUUCUUUCUUGUACACGCUUCUUUCUCGAUCAGUUGUCUUU
B2: Ic_S4_P4E.1_K4.1_C4.1_H4.1_A4.1_[T5C]_[T7A]_F4.1_[T8G]_[A9C]_T4.1 (ssRNA)
RNA: B1 RNA with C30A
B3: Ic_S4_P4E.1_K4.1_C4.1_H4.1_A4.1_[T5C]_[T7G]_F4.1_[A9G]_T4.1 (ssRNA)
RNA: B1 RNA with C30G, G31U, C32G
B4: Ic_S4_P4E.1_K4.1_C4.1_H4.1_A4.1_[T5A]_[A6C]_[T7A]_F4.1_[A9C]_T4.1 (ssRNA)
RNA: B1 RNA with C28A, A29C, C30A, G31U
B5: Ic_S4_P4E.1_K4.1_C4.1_H4.1_A4.1_[T5C]_F4.1_[A9C]_T4.1 (ssRNA)
RNA: B1 RNA with C30U, G31U
B6: Ic_S4_P4E.1_K4.1_C4.1_H4.1_A4.1_[T5A]_[A6C]_F4.1_[T8A]_[A9C]_T4.1 (ssRNA)
RNA: B1 RNA with C28A, A29C, C30U, G31A
B7: Ic_S4_P4E.1_K4.1_C4.1_H4.1_A4.1_[T5A]_[A6C]_[T7A]_F4.1_[T8G]_[A9T]_T4.1 (ssRNA)
RNA: B1 RNA with C28A, A29C, C30A, C32U
B8: Ic_S4_P4E.1_K4.1_C4.1_H4.1_A4.1_[T5A]_[A6C]_[T7C]_F4.1_T4.1 (ssRNA)
RNA: B1 RNA with C28A, A29C, G31U, C32A
B9: Ic_S4_P4E.1_K4.1_C4.1_H4.1_A4.1_[T5A]_[A6C]_F4.1_[T8C]_[A9T]_T4.1 (ssRNA)
RNA: B1 RNA with C28A, A29C, C30U, G31C, C32U
B10: Ic_S4_P4E.1_K4.1_C4.1_H4.1_A4.1_[T5C]_[T7G]_F4.1_[T8C]_[A9T]_T4.1 (ssRNA)
RNA: B1 RNA with C30G, G31C, C32U
B11: Ic_S4_P4E.1_K4.1_C4.1_H4.1_A4.1_[T5C]_[T7A]_F4.1_[T8C]_[A9T]_T4.1 (ssRNA)
RNA: B1 RNA with C30A, G31C, C32U
B12: Ic_S4_P4E.1_K4.1_C4.1_H4.1_A4.1_[T5A]_[A6C]_[T7A]_F4.1_[T8A]_[A9C]_T4.1 (ssRNA)
RNA: B1 RNA with C28A, A29C, C30A, G31A
B13: Ic_S4_P4E.1_K4.1_C4.1_H4.1_A4.1_[T5A]_[A6C]_F4.1_[T8A]_[A9G]_T4.1 (ssRNA)
RNA: B1 RNA with C28A, A29C, C30U, G31A, C32G
B14: Ic_S4_P4E.1_K4.1_C4.1_H4.1_A4.1_[T5C]_[T7G]_F4.1_[T8C]_T4.1 (ssRNA)
RNA: B1 RNA with C30G, G31C, C32A
B15: Ic_S4_P4E.1_K4.1_C4.1_H4.1_A4.1_[T5A]_[A6C]_F4.1_[T8C]_T4.1 (ssRNA)
RNA: B1 RNA with C28A, A29C, C30U, G31C, C32A
B16: Ic_S4_P4E.1_K4.1_C4.1_H4.1_A4.1_[T5C]_[T7C]_F4.1_[T8C]_[A9G]_T4.1 (ssRNA)
RNA: B1 RNA with G31C, C32G
B17: Ic_S4_P4E.1_K4.1_C4.1_H4.1_A4.1_[T5C]_[T7G]_F4.1_[T8C]_[A9C]_T4.1 (ssRNA)
RNA: B1 RNA with C30G, G31C
B18: Ic_S4_P4E.1_K4.1_C4.1_H4.1_A4.1_[T5C]_[T7C]_F4.1_[T8A]_T4.1 (ssRNA)
RNA: B1 RNA with G31A, C32A
B19: Ic_S4_P4E.1_K4.1_C4.1_H4.1_A4.1_[T5A]_[A6C]_[T7G]_F4.1_T4.1 (ssRNA)
RNA: B1 RNA with C28A, A29C, C30G, G31U, C32A
B20: Ic_S4_P4E.1_K4.1_C4.1_H4.1_A4.1_[T5C]_[A6T]_F4.1_[A9C]_T4.1 (ssRNA)
RNA: B1 RNA with A29U, C30U, G31U
B21: Ic_S4_P4E.1_K4.1_C4.1_H4.1_A4.1_[T5C]_[A6T]_F4.1_[T8A]_[A9C]_T4.1 (ssRNA)
RNA: B1 RNA with A29U, C30U, G31A
B22: Ic_S4_P4E.1_K4.1_C4.1_H4.1_A4.1_[T5A]_[A6C]_[T7A]_F4.1_T4.1 (ssRNA)
RNA: B1 RNA with C28A, A29C, C30A, G31U, C32A
B23: Ic_S4_P4E.1_K4.1_C4.1_H4.1_A4.1_[T5C]_[T7G]_F4.1_[A9C]_T4.1 (ssRNA)
RNA: B1 RNA with C30G, G31U
B24: Ib_S1_P4E.1_K4.1_C4.1_H4.1_A4.1_[A6T]_F4.1_[T8G]_T4.1 (ssRNA)
RNA: UCUCUUUGUAUUUGAUCUCUU
B25: Ia_S1_P4E.1_K4.1_C4.1_H4.1_[A4C]_A4.1_F4.1_T4.1 (ssRNA)
RNA: UCUCUUUGUCUAUUAUCUCUU
B26: Ib_S1_P4E.1_K4.1_C4.1_H4.1_A4.1_[A6T]_F4.1_[T8C]_T4.1 (ssRNA)
RNA: UCUCUUUGUAUUUCAUCUCUU
B27: Ic_S1_P4E.1_K4.1_C4.1_H4.1_A4.1_[A6C]_F4.1_[T8G]_T4.1 (ssRNA)
RNA: UCUCUUUGUAUCUGAUCUCUU
B28: Ic_S1_P4E.1_K4.1_C4.1_H4.1_A4.1_[A6G]_F4.1_[T8C]_T4.1 (ssRNA)
RNA: UCUCUUUGUAUGUCAUCUCUU
B29: Ia_S1_P3E.1_K3.1_C3.1_H3.1_A3.1_F3.1_[A8G]_T3.1 (ssRNA)
RNA: UCUCUUUGUAUAUGUCUCUU

Biological target: T1, PUF4 RNA-binding domain (Saccharomyces cerevisiae, UniProt P25339 537-888)
T1 sequence: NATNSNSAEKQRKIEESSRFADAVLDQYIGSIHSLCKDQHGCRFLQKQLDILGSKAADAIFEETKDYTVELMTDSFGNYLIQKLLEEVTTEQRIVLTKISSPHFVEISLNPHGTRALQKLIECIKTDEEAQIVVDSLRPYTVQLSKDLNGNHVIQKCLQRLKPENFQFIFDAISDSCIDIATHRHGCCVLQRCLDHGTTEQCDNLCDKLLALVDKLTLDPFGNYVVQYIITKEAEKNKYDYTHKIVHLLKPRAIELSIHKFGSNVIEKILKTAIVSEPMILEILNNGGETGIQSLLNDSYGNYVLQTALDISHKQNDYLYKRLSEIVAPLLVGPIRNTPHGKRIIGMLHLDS
Assay: Mg; RNA-MaP; 20 mM Na-HEPES pH 7.4, 30 mM KOAc, 0.75 mM MgCl2, 0.1% Tween-20, 5% glycerol, 0.1 mg/mL BSA, 2 mM DTT; 25 C; 0.0125-409.6 nM protein
Details: tags: N-His6-TEV cleaved; C-SNAP kept, Cy3B-labelled; label: tethered on chip by stalled RNA polymerase

Compared with B1, B2 is 7.8-fold higher in Kd: 90.1 nM for the first, 700 nM for the second.

First: B3
Second: B4
The Kd of the first is 2.5-fold lower: 9.03 nM for the first, 22.5 nM for the second. The first binds more tightly here.

Compared with B5, B6 is 81-fold higher in Kd: 3.55 nM for the first, 287 nM for the second. The first binds more tightly here.

First: B7
Second: B8
The Kd of the first is 110-fold higher: 604 nM for the first, 5.74 nM for the second. The second binds more tightly here.

B9 and B10 are within 1.5-fold of each other in Kd: 72 nM for the first, 55.1 nM for the second.

Compared with B11, B12 is 27-fold higher in Kd: 39.4 nM for the first, 1050 nM for the second. The first binds more tightly here.

Going from B13 to B14, the Kd falls from 653 nM to 69.5 nM (9.4-fold). The second binds more tightly here.

Compared with B15, B16 is 3.9-fold lower in Kd: 281 nM for the first, 72 nM for the second. The second binds more tightly here.

Compared with B17, B18 is 5.3-fold lower in Kd: 89.4 nM for the first, 16.9 nM for the second. The second binds more tightly here.

B19 and B20 are within 1.5-fold of each other in Kd: 14.5 nM for the first, 13.1 nM for the second.

Compared with B21, B22 is 81-fold lower in Kd: 108 nM for the first, 1.34 nM for the second. The second binds more tightly here.

Compared with B23, B24 is 20-fold higher in Kd: 22.9 nM for the first, 458 nM for the second.

Compared with B25, B26 is 5.5-fold higher in Kd: 12.7 nM for the first, 69.6 nM for the second.

Compared with B27, B28 is 5-fold higher in Kd: 76.5 nM for the first, 384 nM for the second. The first binds more tightly here.

B29 gave a Kd of 17 nM.
